For orientation: stoichiometry N means a count of units in the complex or per binding partner.

The record followed here is article PMC2793330 (Journal of structural biology, 2009).

The chains are these.
B1: γ-tubulin (Tub4p), His-tagged, as in the fluorescent-protein-tagged γ-TuSC constructs (natural protein, S. cerevisiae, UniProt P53378 1-473, looked up)
chain: MGGEIITLQAGQCGNHVGKFLWSQLAKEHAIGTDGLSQLPDSSTERDDDTKPFFRENSRNKFTPRAIMMDSEPSVIADVENTFRGFFDPRNTWVASDGASAGNSWANGYDIGTRNQDDILNKIDKEIDSTDNFEGFQLLHSVAGGTGSGLGSNLLEALCDRYPKKILTTYSVFPARSSEVVVQSYNTILALRRLIEDSDATVVFDNASLLNISGKVFRNPNIDLQHTNQLISTIISSVTNSIRFPSYMYSSMSSIYSTLIPSPELHFLSPSFTPFTSDYIHDDIAHKGHSSYDVMLDLLDPSNSLVSTAMNNPTYFNVYNTIIGNVEPRQISRAMTKLQQRIKFPSWSSSAMHVNIGRRSPYLPLQPNENEVSGMMLSNMSTVVNVFENACNTFDKVFAKGAFLNNYNVGDLFQSMQNVQDEFAESREVVQSLMEDYVAAEQDSYLDDVLVDDENMVGELEEDLDADGDHKLV
B2: γ-tubulin (Tub4p), His-tagged with the longer tag linker, as in the γ-TuSC without fluorescent protein tag (natural protein, S. cerevisiae, UniProt P53378 1-473, looked up)
chain: B1 chain
B3: Spc97p with YFP on its N-terminus (of γ-TuSC:YFPSpc97p) (natural protein, S. cerevisiae, UniProt P38863 1-823, looked up)
chain: MEIKEVDDRAELLRYTNNIPLLGKLVNHQPLWSTNPKLKSFSLEKISAPDQRRVQEALVVKDLLNVLIGLEGTYIRYFNDYEPSDPETPIEFKIAKKMDPSFKTFSRRIVRYGKQYMILTRAYEKWSDTSFGMVLQRFAYEIRRFLEDVYLKTLVERLERDFNKVPNFSIRELEQIINETEVNKQMELLYNIYEEIFREIEERRTNQSSQEDFNNFMDSMKNESSLHLRLMVAFDTTVYPVPKGGAILKIFQQKILENLGDRSSVMFLKKLLNNISQDYCTMLYEWLTQGILNDPYQEFMTYDDLEGKTDNIFDTRDRAWDTQYFIRKDVLLRDCDSEEDKNLLFKMLRTGILLKVVRASLQIPTIPSNSSDITIQEINDFADLMEGSNLELYVDKCYSRANEIFLKLFFQGYDLINVLKHLQQIFLGYQSGHNVLKFLTKNMGELTKHYRNDNNANYDKLLQNFELERQSENPNNLMRQLLMIQFDTETLPQVLSHYLQIYPEVPENNSANDDSDPLMHANNFKNMNAILFDELSKERTGAYHGSNLELYTPKSAIYHLKFDINIPYPLNIIISRTCMIKYQIILRYQLVLQYHSRLLDETWMDLNKTPSWKYRGYSHTVKRRIVRATRVLHAKMNHFIKTIMEYFNQNVIDKEVYSLEKCYRNPTLAVAIQNELEGGLTNIMTNRCLSDLIPLQLQIFDIVYKFCKFIKSMRAKLCQLDPVLYEKHKSGMMKTLNEGYRTNNGGQEDVGYQEDAALELIQKLIEYISNASSIFRKCLINFTQELSTEKFDFYDSSSVDAAGIERVLYSIVPPRSASASSQR
B4: Spc97p with YFP on its C-terminus (of γ-TuSC:Spc97pYFP) (natural protein, S. cerevisiae, UniProt P38863 1-823, looked up)
chain: B3 chain
B5: Spc97p, without fluorescent protein tag (natural protein, S. cerevisiae, UniProt P38863 1-823, looked up)
chain: B3 chain

What all share (assay): co-purification, SDS-PAGE with band densitometry
Experiment [1] addresses T1, Spc98p, without fluorescent protein tag (S. cerevisiae, UniProt P53540 1-846).
T1 sequence (looked up): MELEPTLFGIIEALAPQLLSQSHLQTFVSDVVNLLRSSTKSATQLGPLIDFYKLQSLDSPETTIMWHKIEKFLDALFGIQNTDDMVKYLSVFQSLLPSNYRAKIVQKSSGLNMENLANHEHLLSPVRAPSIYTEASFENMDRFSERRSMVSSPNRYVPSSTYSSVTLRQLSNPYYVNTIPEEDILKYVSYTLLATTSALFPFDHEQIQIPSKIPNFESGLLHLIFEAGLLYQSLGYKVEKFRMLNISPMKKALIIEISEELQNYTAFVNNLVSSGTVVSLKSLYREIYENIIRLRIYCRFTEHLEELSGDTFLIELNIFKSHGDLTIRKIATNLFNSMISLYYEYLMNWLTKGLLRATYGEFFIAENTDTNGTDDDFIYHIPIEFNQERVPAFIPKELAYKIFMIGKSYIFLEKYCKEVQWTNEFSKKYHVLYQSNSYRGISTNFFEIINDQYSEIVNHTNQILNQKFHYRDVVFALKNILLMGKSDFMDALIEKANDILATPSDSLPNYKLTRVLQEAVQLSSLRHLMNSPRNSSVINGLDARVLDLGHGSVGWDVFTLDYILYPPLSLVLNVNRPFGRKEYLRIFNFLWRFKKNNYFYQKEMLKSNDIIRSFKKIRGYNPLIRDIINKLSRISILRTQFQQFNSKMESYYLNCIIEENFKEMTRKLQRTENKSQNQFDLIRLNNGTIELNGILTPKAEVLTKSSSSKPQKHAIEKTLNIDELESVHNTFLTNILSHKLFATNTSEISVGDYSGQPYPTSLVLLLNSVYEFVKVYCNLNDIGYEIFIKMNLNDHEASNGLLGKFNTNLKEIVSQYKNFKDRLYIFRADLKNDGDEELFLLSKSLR

The target in experiment [2] is T2, Spc98p with CFP on its N-terminus (of γ-TuSC:CFPSpc98p) (S. cerevisiae, UniProt P53540 1-846).
T2 sequence (looked up): T1 sequence (looked up)

The target of experiment [3] is B5.
Experiment [4] concerns the target B3.
The target in experiment [5] is T3, Spc98p with CFP on its C-terminus (of γ-TuSC:Spc98pCFP) (S. cerevisiae, UniProt P53540 1-846).
T3 sequence (looked up): T1 sequence (looked up)

The target in experiment [6] is B4.

As to B1, the “stoichiometry N” value in experiment [1], in experiment [2], in experiment [3], in experiment [4], in experiment [5] and in experiment [6] was 2 in each case.

As for B2, the “stoichiometry N” value in experiment [1] and in experiment [3] was 2 in each case.

For B3, the “stoichiometry N” value in experiment [1] amounted to 1.

For the molecule B4, the “stoichiometry N” value in experiment [1] is 1.

With B5, the “stoichiometry N” value in experiment [1], in experiment [2] and in experiment [5] was 1 throughout.
